Source: patent publication US20240238263A1, “USE OF PYRIDONE DERIVATIVE CONTAINING HETEROATOM CYCLOBUTANE SUBSTITUENT” (GUANGZHOU JOYO PHARMATECH CO., LTD, priority 2021, published 2024)

System: dorsal skin full-thickness excisional wound in STZ-induced diabetic rats
Assay: Dorsal skin full-thickness excisional wound model in STZ-induced diabetic rats, wound closure
Assay type: in vivo, Wistar rats
Conditions: for Remaining open wound area: GeneTime 0.04 mL topical twice daily
Description: In this study, 50 STZ-diabetic rats were used to simulate Type 1 diabetes, with an additional 8 normal rats serving as the control group (normal blank gel control group (without STZ)). The method for modeling the STZ-diabetic rat is as follows: Male Wistar rats were weighed and then intraperitoneally injected with Streptozotocin (STZ, freshly prepared, dissolved in 0.1 M citrate buffer (pH 4.5)) at a dosage of 80 mg/kg. STZ was intraperitoneally injected twice in total, with a 5-day interval between injections. Three days after the second STZ injection, rats with fasting blood glucose levels greater than 250 mg/dl were defined as diabetic model rats. Studies on skin wound healing could be conducted from 1 to 8 weeks after the successful establishment of the diabetic rat model. • 2.
In diabetic model rats, the dorsal skin was marked with a stamp, and full-thickness excision was performed to create a standardized wound area. The day of the full-thickness skin excision surgery was designated as Day 1 of the experiment. The specified surgical procedure was as follows: • 1) Prior to surgery, animals were anesthetized with 2-5% isoflurane. The back was shaved and prepared, and the surgical area was disinfected with iodophor, followed by de-iodination with 75% alcohol. • 2) All animals were marked on the skin of their backs using a stamp with a circular pattern. A circular full-thickness skin excision was performed along the midline of the rat's back, extending down to the fascial layer. […] The surgical site was essentially consistent for each animal; • 3) Post-surgery, every 8-12 hours, 8 mg/kg of bupivacaine (diluted to 0.25% with physiological saline) was injected subcutaneously at the wound site. All animals were closely monitored until they regained consciousness. Animals were monitored daily, and if symptoms of pain persisted, they would continue to receive pain medication. • 4. Drug administration:
All experimental groups were topically administered. Before administering the medication, wounds were rinsed with physiological saline and any residual moisture was absorbed with a sterile cotton swab. Then, the medication was applied. For the GeneTime group, the solution was evenly applied to the wound and surrounding skin, with the dressing changed twice a day. For the other groups, the gel samples were applied from the periphery toward the center, focusing first on the edges of the lesion before covering inward, with the dressing changed twice a day. Medication was applied immediately after the wound model was created, and each group was continuously administered for 18 days. For specific administration information, see Table 2. • 5. Efficacy assessment • 1) Blood glucose monitoring: Blood samples were obtained from all animals via tail vein sampling, and fasting blood glucose levels were measured on days 0/9/18 using a glucometer. • 2) Evaluation of wound closure:
After anesthetizing the rats with isoflurane, a ruler was placed near the wound as a reference scale. Using a digital camera, photos of the wound on the rat's back were taken on days 1, 4, 8, 11, 14, and 18, maintaining a constant focus and pixel condition. The obtained images were processed by software to measure the wound area. • 6. Statistical analysis
Experimental data were expressed as the mean±standard error of the mean (mean±S.E.M.). Statistical analyses were conducted using appropriate methods in software such as Graphpad Prism or SPSS. A p-value of less than 0.05 is considered to indicate a significant difference. • 7. Results • 1) Fasting blood glucose
Remaining Open Wound Area %=Open Wound Area (O)/Initial Wound Area (I)*100%

B1: GeneTime: Recombinant Human Epidermal Growth Factor External Solution, 2000 IU/mL; positive control (protein, UniProt P01133 23-1207, looked up)
Pro-epidermal growth factor: PQHWSCPEGTLAGNGNSTCVGPAPFLIFSHGNSIFRIDTEGTNYEQLVVDAGVSVIMDFHYNEKRIYWVDLERQLLQRVFLNGSRQERVCNIEKNVSGMAINWINEEVIWSNQQEGIITVTDMKGNNSHILLSALKYPANVAVDPVERFIFWSSEVAGSLYRADLDGVGVKALLETSEKITAVSLDVLDKRLFWIQYNREGSNSLICSCDYDGGSVHISKHPTQHNLFAMSLFGDRIFYSTWKMKTIWIANKHTGKDMVRINLHSSFVPLGELKVVHPLAQPKAEDDTWEPEQKLCKLRKGNCSSTVCGQDLQSHLCMCAEGYALSRDRKYCEDVNECAFWNHGCTLGCKNTPGSYYCTCPVGFVLLPDGKRCHQLVSCPRNVSECSHDCVLTSEGPLCFCPEGSVLERDGKTCSGCSSPDNGGCSQLCVPLSPVSWECDCFPGYDLQLDEKSCAASGPQPFLLFANSQDIRHMHFDGTDYGTLLSQQMGMVYALDHDPVENKIYFAHTALKWIERANMDGSQRERLIEEGVDVPEGLAVDWIGRRFYWTDRGKSLIGRSDLNGKRSKIITKENISQPRGIAVHPMAKRLFWTDTGINPRIESSSLQGLGRLVIASSDLIWPSGITIDFLTDKLYWCDAKQSVIEMANLDGSKRRRLTQNDVGHPFAVAVFEDYVWFSDWAMPSVMRVNKRTGKDRVRLQGSMLKPSSLVVVHPLAKPGADPCLYQNGGCEHICKKRLGTAWCSCREGFMKASDGKTCLALDGHQLLAGGEVDLKNQVTPLDILSKTRVSEDNITESQHMLVAEIMVSDQDDCAPVGCSMYARCISEGEDATCQCLKGFAGDGKLCSDIDECEMGVPVCPPASSKCINTEGGYVCRCSEGYQGDGIHCLDIDECQLGEHSCGENASCTNTEGGYTCMCAGRLSEPGLICPDSTPPPHLREDDHHYSVRNSDSECPLSHDGYCLHDGVCMYIEALDKYACNCVVGYIGERCQYRDLKWWELRHAGHGQQQKVIVVAVCVVVLVMLLLLSLWGAHYYRTQKLLSKNPKNPYEESSRDVRSRRPADTEDGMSSCPQPWFVVIKEHQDLKNGGQPVAGEDGQAADGSMQPTSWRQEPQLCGMGTEQGCWIPVSSDKGSCPQVMERSFHMPSYGTQTLEGGVEKPHSLLSANPLWQQRALDPPHQMELTQ
modifications: Pro-epidermal growth factor
notes: Recombinant Human Epidermal Growth Factor External Solution, 2000 IU/mL; positive control
For B1, the “Remaining open wound area” value (Day 1 (day of surgery)) was 100% ±, the “Remaining open wound area” value (Day 4) was 91.82% ± and the “Remaining open wound area” value (Day 8) was 52.36% ±. For the same molecule, the “Remaining open wound area” value (Day 14) was 8.17% ±, the “Remaining open wound area” value (Day 18) was 1.79% ± and the “Change of remaining open wound area % vs model blank gel control group” value (GeneTime, day 11 after administration, P<0.05) was “significantly reduced”.
